This note sets out measurements from article PMC2120335 (The Journal of Cell Biology, 1995).

This series deals with the molecule itself. Kind of series: negative-stain electron microscopy + sedimentation assay.

B1: 454C, COOH-terminal half of scruin (domain or fragment)
chain: MQQGDSSGSTMLEGNDRISGRIRTYISGYRPLPPDQDDLSKELVPVSIPFWPPDPDTTDSVFHTVRDQYRNPEEQMGFKHFYTIPRQMDPNLGMLLFMDEDYQHSKKVLGLRSVESVPYYINRFQASGTIQDNTIPVIIGTGGVDLRDPMNIAYGRSVFQYHPLKDRWEFFGYMPQPRNYHAAAYYRSAIYITGGYDPDVRTWGEMVATKTTFVYELASKNWTRMGDMRCARSHHSLLVFNDVLYAIGGRDDIGRLVSSVESYDHESNEWTMEKSMPSPRMGMAAVAHGGYIWLLGGLTSMTTEEPPVLDDVLCYDPVFKHWVDGRPLRIGRAFGNAAVCDNKIWLCGGAAPSTDENNYLVSVPAIDVYDEETMEWKQKTSLGCPRHSAIVVALESCLYIAGGVNSHELSATSRNELYMVDNDTIQTVRELPIPLTGMAAVTIPPKCVTFRSESLSIMIRHKVTP
For the protein B1, the binding result is “binds”.

B2: 590C, smaller COOH-terminal fragment of scruin (domain or fragment)
chain: VIIGTGGVDLRDPMNIAYGRSVFQYHPLKDRWEFFGYMPQPRNYHAAAYYRSAIYITGGYDPDVRTWGEMVATKTTFVYELASKNWTRMGDMRCARSHHSLLVFNDVLYAIGGRDDIGRLVSSVESYDHESNEWTMEKSMPSPRMGMAAVAHGGYIWLLGGLTSMTTEEPPVLDDVLCYDPVFKHWVDGRPLRIGRAFGNAAVCDNKIWLCGGAAPSTDENNYLVSVPAIDVYDEETMEWKQKTSLGCPRHSAIVVALESCLYIAGGVNSHELSATSRNELYMVDNDTIQTVRELPIPLTGMAAVTIPPKCVTFRSESLSIMIRHKVTP
B2: the binding result is reported as “binds”.
